This is an account of results in patent US20210102001A1 (CHIMAGEN BIOSCIENCES, published 2021).

Assay [1] has as its target T1, human CD19 (His-tagged) (human, UniProt P15391 20-291).
T1 construct: Captured on chips carrying anti-histidine antibodies
T1 sequence (looked up): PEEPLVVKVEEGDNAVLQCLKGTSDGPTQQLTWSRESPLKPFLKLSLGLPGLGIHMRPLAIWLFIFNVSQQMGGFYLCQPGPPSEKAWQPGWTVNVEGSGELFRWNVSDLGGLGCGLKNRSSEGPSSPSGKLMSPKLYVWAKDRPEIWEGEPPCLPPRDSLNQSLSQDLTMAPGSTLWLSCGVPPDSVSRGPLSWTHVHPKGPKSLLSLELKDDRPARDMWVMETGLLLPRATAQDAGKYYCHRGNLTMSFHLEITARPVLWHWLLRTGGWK
Nature of the assay: SPR (BIAcore); human CD19 captured on anti-His antibody chip, antibody at 5 concentrations. The method, then:
(§1) Binding affinity for human CD3E or human CD19 of the CD3×CD19×CD8 tri-specific antibody was tested by BIAcore. Kₐ, Kd and KD were calculated from the experimental results and used to evaluate affinity of the antibodies for human CD3E and CD19. CD3E and CD19 molecules as ligands were immobilized to chips conjugated with anti-histine antibodies. Antibody molecules in five different concentrations were analyzed for their affinity for CD19. Affinity for human CD3E was examined using the same method.
For orientation: SPR reads the build-up and loss of mass on a sensor chip optically.

The target in assay [2] is T2, human CD3E (human, UniProt P07766 23-126, limits assumed).
T2 construct: Captured on chips carrying anti-histidine antibodies, 'using the same method' as the His-tagged CD19
As to the kind of experiment: SPR (BIAcore); human CD3E captured on anti-His antibody chip, antibody at 5 concentrations. As to the method:
as §1

T2 sequence (P07766 23-126 limits assumed): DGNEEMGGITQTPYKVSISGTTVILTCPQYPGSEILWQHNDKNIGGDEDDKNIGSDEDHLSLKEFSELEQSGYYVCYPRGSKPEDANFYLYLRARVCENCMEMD

B1: Antibody #55, CD3×CD19×CD8 tri-specific antibody (other)
chain 1: EIVLTQSPATLSVTPGERATLSCSASSSVSYMHWYQKKPGQAPRLLIYDTSKLASGIPARFSGSGSGTDFTLTISSLEPEDFAVYYCFQGSVYPFTFGCGTKLEIKRTVAAEVQLVESGGGLVQPGGSLRLSCAASGFTFNTYAMNWVRKAPGKGLEWVGRIRSKYNNYATYYADSVDKGRFTISRDDSKNSLYLQMNSLKTEDTAVYYCVRHGNFGNSYVSWFAYWGQGTLVTVSS
chain 2: EAVVTQEPSLTVSPGGTVTLTCRSSTGAVTTSNYANWVQDKPGQAPRGLIGGTNKRAPWTPARFSGSLLGGKAALTITGAQPEDEAGYYCALWYSNLWVFGGGTKLTVLRTVAAQVQLQESGPGLVKPSQTLSLTCTVSGGSISTSGMGVGWIRDHPGKCLEWIGHIWWDDDKRYNPALKSRVTISVDTSKNQFSLKLSSVTAADTAVYYCARMELWSYYFDYWGQGTTLTVSSASEPKSDKTHTCPPCPAPPVAGGPSVPLPPPKPKDTLMISRTPEVTCVVVDVSQEDPEVKFNWYVDGVGVHNAKTKPREEQFNSTYRVVSVLTVLHQDWLNGKEYKCKVSNKGLPSSIEKTISKAKGQPREPQVYTLPPCRDELTKNQVSLWCLVKGFYPSDIAVEWESNGQPENNYKTTPPVLDSDGSFFLYSKLTVDKSRWQQGNVFSCSVMHEALHNHYTQKSLSLSPGK
heavy: QVQLVESGGGVVQPGRSLRLSCAASGPTFSDFGMNWVRKAPGKGLEWVALIYYDGSNKFYADSVKGRFTISRDNSKNTLYLQMNSLRAEDTAVYYCAKPHYDGYYHFFDSWGQGTLVTVSSASTKGPSVFPLAPGSSKSTSGTAALGCLVKDYFPEPVTVSWNSGALTSGVHTFPAVLQSSGLYSLSSVVTVPSSSLGTQTYICNVNHKPSNTKVDKKVEPKSCDKTHTCPPCPAPPVAGGPSVFLFPPKPKDTLMISRTPEVTCVVVDVSQEDPEVKFNWYVDGVEVHNAKTKPREEQFNSTYRVVSVLTVLHQDWLNGKEYKCKVSNKGLPSSIEKTISKAKGQPREPQVCTLPPSRDELTKNQVSLSCAVKGFYPSDIAVEWESNGQPENNYKTTPPVLDSDGSFFLVSKLTVDKSRWQQGNVFSCSVMHEALHNRFTQKSLSLSPGK
light: not shown
notes: Tri-specific antibody of four chains
By Kd is commonly meant the concentration at which binding is half-saturated. Turning to B1, the Kd in assay [1] worked out at 8.63 nM; in assay [2], 31.3 nM.
